Results from patent US20240301052A1 (LANOVA MEDICINES DEVELOPMENT, published 2024).
Read-outs that look alike come from different tables or passages of the source.

T1: Cynomolgus SLC34A2 (Cynomolgus, UniProt A0A2K5UHY1 1-690)
T1 construct: whole, on cells; also called Cyno SLC34A2
T1 sequence: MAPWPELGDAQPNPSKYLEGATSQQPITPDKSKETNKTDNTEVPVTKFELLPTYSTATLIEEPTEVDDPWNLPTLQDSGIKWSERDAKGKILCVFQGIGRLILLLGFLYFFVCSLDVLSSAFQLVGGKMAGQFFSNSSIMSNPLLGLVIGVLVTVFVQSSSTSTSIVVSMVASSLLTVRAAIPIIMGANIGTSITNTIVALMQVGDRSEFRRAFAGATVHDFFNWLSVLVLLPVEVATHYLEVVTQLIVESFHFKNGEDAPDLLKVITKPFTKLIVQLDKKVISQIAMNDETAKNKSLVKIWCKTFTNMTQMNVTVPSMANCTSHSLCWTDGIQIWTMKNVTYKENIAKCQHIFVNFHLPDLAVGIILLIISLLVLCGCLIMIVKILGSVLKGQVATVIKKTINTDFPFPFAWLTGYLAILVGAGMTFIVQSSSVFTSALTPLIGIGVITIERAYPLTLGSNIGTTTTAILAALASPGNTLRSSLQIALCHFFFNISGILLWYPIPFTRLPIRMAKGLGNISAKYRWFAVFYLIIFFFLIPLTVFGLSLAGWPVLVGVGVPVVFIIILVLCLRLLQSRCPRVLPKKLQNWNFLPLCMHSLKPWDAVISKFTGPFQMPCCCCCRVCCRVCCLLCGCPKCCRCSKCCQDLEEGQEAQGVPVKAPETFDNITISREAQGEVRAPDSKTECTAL

T2: human SLC34A2 (human, UniProt O95436 1-690)
T2 construct: whole, on cells; also called human solute carrier 34 A2; NaPi2b
T2 sequence (looked up): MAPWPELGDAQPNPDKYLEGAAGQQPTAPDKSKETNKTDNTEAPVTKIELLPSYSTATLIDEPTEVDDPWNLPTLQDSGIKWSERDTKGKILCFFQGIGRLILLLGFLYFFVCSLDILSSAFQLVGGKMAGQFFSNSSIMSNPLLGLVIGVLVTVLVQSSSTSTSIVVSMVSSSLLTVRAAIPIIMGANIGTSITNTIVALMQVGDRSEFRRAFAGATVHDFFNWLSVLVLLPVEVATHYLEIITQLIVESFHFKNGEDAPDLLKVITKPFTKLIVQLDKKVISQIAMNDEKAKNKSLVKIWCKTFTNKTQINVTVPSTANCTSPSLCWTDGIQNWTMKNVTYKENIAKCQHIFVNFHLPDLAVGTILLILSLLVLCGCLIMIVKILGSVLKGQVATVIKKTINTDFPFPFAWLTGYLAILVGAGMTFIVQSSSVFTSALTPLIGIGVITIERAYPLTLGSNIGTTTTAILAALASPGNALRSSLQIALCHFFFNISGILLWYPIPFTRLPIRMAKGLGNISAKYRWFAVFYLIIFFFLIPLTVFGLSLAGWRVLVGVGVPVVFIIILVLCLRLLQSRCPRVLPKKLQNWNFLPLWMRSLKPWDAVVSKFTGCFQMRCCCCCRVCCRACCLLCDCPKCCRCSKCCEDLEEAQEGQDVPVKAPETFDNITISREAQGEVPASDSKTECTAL

T3: mouse SLC34A2 (mouse, UniProt Q9DBP0 1-697)
T3 construct: whole, on cells
T3 sequence (looked up): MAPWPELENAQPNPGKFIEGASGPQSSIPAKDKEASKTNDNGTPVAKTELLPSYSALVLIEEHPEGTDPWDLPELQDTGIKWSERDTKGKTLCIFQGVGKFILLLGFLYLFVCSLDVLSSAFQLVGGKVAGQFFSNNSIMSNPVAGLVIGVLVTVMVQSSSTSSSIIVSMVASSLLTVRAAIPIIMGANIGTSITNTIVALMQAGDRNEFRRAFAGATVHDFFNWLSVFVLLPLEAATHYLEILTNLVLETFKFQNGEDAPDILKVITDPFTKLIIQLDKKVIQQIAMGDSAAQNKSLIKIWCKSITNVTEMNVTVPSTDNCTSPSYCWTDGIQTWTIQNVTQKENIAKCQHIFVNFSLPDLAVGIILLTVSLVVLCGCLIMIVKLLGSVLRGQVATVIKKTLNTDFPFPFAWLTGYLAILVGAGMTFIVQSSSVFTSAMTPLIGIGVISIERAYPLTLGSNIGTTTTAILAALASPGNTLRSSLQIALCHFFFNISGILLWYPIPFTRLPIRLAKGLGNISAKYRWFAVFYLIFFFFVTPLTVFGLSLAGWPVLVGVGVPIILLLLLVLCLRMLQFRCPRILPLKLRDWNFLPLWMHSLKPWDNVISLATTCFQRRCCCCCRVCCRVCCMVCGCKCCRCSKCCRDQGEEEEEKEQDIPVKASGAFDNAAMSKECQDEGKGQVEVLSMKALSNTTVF


Key:
Cynomolgus SLC34A2 = target: T1, Cynomolgus SLC34A2; test: FACS, cells expressing Cynomolgus SLC34A2
human SLC34A2 [1] = target: T2, human SLC34A2; test: FACS, OVCAR3 cells
human SLC34A2 [2] = target: T2, human SLC34A2; test: FACS, OVCAR3 cells; remark: listed apart in the source
human SLC34A2 [3] = target: T2, human SLC34A2; test: FACS, RMG-1 cells
mouse SLC34A2 = target: T3, mouse SLC34A2; test: FACS, HEK293/Mouse SLC34A2 cells
human SLC34A2 [4] = target: T2, human SLC34A2; test: FACS, HEK293/human SLC34A2 cells
human SLC34A2 [5] = target: T2, human SLC34A2; test: FACS, HEK293/human SLC34A2 cells; remark: listed apart in the source
human SLC34A2 [6] = target: T2, human SLC34A2; test: FACS, OVCAR3 cells
human SLC34A2 [7] = target: T2, human SLC34A2; test: FACS, OVCAR3 cells; remark: listed apart in the source
[8] = target: Cynomolgus SLC34A2 (Cynomolgus); test: FACS, cells expressing Cynomolgus SLC34A2
human SLC34A2 [9] = target: T2, human SLC34A2; test: FACS, OVCAR3 cells; remark: listed apart in the source

EC50 (Cynomolgus SLC34A2) [nM] | Top (MFI) (Cynomolgus SLC34A2) | EC50 (human SLC34A2 [2]) [nM] | Top (MFI) (human SLC34A2 [2]) | EC50 (human SLC34A2 [3]) [nM] | Binder | also measured
5.33 | 3510 | 9.2 | 78600 | – | xi63A11D5B4 hIgG1 (antibody, V domains shown, chimeric, hIgG1) VH: QVQLQQPGAELVKPGASVKMSCRTSGYTFITYNMHWVKQTPGQGREWIGAIYPGNGDTSYNQKFKGKATLTADKSSSTAYMQLNSLTSEDSAVYYCSISTIITTGAVDYWGQGTSVTVAS VL: DIVMTQSHKFMSTSVGDRVSITCKASQDVGTAVAWYQQKAGQSPKLLIYWTSTRHTGVPDRFTGSGSGTDFTLIIRSLQSEDLADYFCQQYSRIPLTFGSGTKLEIK | EC50 (human SLC34A2 [1]): 10.5 nM; Top (MFI) (human SLC34A2 [1]): 32100 MFI
3.33 | 4020 | 5.8 | 71100 | – | xi62G10E4G8 hIgG1 (antibody, V domains shown, chimeric, hIgG1) VH: QVQLQQSGAEVVKPGASVKMSCKASGYTFPSYITHWVKQTPGQGLEWIGAIYPGNGDTSYIQKFKGKATLTADKSSSTAYMQLSSLTSEDSAVYYCARGTYGTSAWFTYWGQGTLVTVSA VL: DIVLTQSPATLSVTPGDSVSLSCRARQNIGNNLYWYQQKSHESPRLLIKYASQSISGIPSRFSGSGSGTDFTLTINSVETEDFGVYFCQQSFSWPLTFGAGTKLELK | –
9.11 | 2430 | 1.6 | 63300 | – | xi91C9F1 hIgG1 (antibody, V domains shown, chimeric, hIgG1) VH: EVQLQQSGPELVKPGTSVKISCKTSGFFFTEYIIHWVKQSHGRSLEWIGGIIPNNGVTNYKQNFRGKAALTADKSSNTAYMELRSLTSEDSAVYYCARWRNGYYSAMDSWGQGTSVTVSS VL: DIVVTQSHKFMSTSLGDRVSITCTASQDVGTAVAWYQQKPGHSPKLLIYWASTRHTGVPERFTGSGSGTDFTLTITNVQSEDLADYFCQQYRTSPLTFGVGTKLELK | EC50 (human SLC34A2 [9]): 1.77 nM; Top (MFI) (human SLC34A2 [9]): 32100 MFI

More lines, now with the values behind:

Binder | EC50 (Cynomolgus SLC34A2) [nM] | Top (MFI) (Cynomolgus SLC34A2) | EC50 (human SLC34A2 [2]) [nM] | Top (MFI) (human SLC34A2 [2]) | EC50 (human SLC34A2 [3]) [nM] | also measured
30H9B8F9.p1.z5 hIgG1 (antibody, V domains shown, humanized hIgG1) VH: QVQLVQSGAEVKKPGASVKVSCKTSGYTFTTNNMHWVRQAPGQGLEWIGAIYPGSGATAYNQKFKGRVTMTADTSTSTVYMELSSLRSEDTAVYYCARGMYGHGAMDYWGQGTLVTVSS VL: DIQLTQSPSFLSASVGDRVTITCKASQDVGTAVAWYQQKPGKAPKLLIYWATTRHSGVPSRFSGSGSGTEFTLTISSLQPEDFATYYCQQYSSNPLTFGQGTKLEIK | – | – | – | – | 1.4 | –
62G10E4G8.p3.z15 hIgG1 (antibody, V domains shown, humanized hIgG1) VH: QVQLVQSGAEVVKPGASVKMSCKASGYTFPSYITHWVKQAPGQGLEWIGAIYPGNADTSYIQKFKGRATLTADKSTSTAYMELSSLRSEDTAVYYCARGTYGTSAWFTYWGQGTLVTVSS VL: EIVLTQSPATLSVSPGERATLSCRARQNIGNNLYWYQQKPGQSPRLLIKYASQSISGIPSRFSGSGSGTDFTLTISSLQSEDFAVYFCQQSFSWPLTFGQGTKLEIK | – | – | – | – | 3.7 | –
xi30H9B8F9 hIgG1 (antibody, V domains shown, chimeric, hIgG1) VH: QVQLQQPGAELVKPGASVKMSCKTSGYTFTTNNMHWVKQTPGQGLEWIGAIYPGNGATAYNQKFKGKATLTADKSSSTAYMQLSSLTSEASAVYYCARGMYGHGAMDYWGQGTSVIVSS VL: DIVMTQSHKFMSRSVGDRVRITCKASQDVGTAVAWYQQKPGQSPKLLIYWATTRHSGVPDRFTGSGSGTDFIFTISNVQSEDLADYFCQQYSSNPLTFGAGTKLELK | 1.08 | 4080 | 1.1 | 69100 | – | –
63A11D5B4.p1.z9 hIgG1 (antibody, V domains shown, humanized hIgG1) VH: QVQLVQSGAEVVKPGASVKMSCKTSGYTFITYNMHWVRQAPGQGLEWIGAIYPGSGDTSYNQKFKGRVTLTADKSTSTAYMELSSLRSEDTAVYYCSISTIITTGAVDYWGQGTLVTVSS VL: DIQMTQSPSSLSASVGDRVTITCKASQDVGTAVAWYQQKPGKVPKLLIYWTSTRHTGVPSRFSGSGSGTDFTLTISSLQPEDVATYYCQQYSRIPLTFGGGTKVEIK | – | – | – | – | 28.3 | EC50 (human SLC34A2 [1]): 9.12 nM; Top (MFI) (human SLC34A2 [1]): 26500 MFI
XMT-1536 (antibody, INN chains, looked up, V domains shown, rilsodotin auristatin payload) VH: QVQLVQSGAEVVKPGASVKMSCKASGYTFTGYNIHWVKQAPGQGLEWIGAIYPGNGDTSYKQKFRGRATLTADTSTSTVYMELSSLRSEDSAVYYCARGETARATFAYWGQGTLVTVSS VL: DIQMTQSPSSLSASVGDRVTITCSASQDIGNFLNWYQQKPGKTVKVLIYYTSSLYSGVPSRFSGSGSGTDYTLTISSLQPEDFATYYCQQYSKLPLTFGQGTKLELK | – | – | – | – | – | EC50 (mouse SLC34A2): 6.13 nM; EC50 (human SLC34A2 [4]): 4.05 nM; Top (human SLC34A2 [4]): 34700 MFI; EC50 (human SLC34A2 [5]): 2.68 nM; Top (human SLC34A2 [5]): 32400 MFI; EC50 (human SLC34A2 [6]): 2.68 nM; Top (MFI) (human SLC34A2 [6]): 32400 MFI; EC50 (human SLC34A2 [7]): 10.3 nM; Top (human SLC34A2 [7]): 22500 MFI; EC50 [8]: 29.3 nM; Top (MFI) [8]: 2050 MFI
91C9F1.p1.z7 hIgG1 (antibody, V domains shown, humanized hIgG1) VH: QVQLVQSGAEVKKPGSSVKVSCKTSGFFFTEYIIHWVRQAPGQGLEWIGGIIPNNDVTNYKQNFRGRVTLTADKSTSTAYMELSSLRSEDTAVYYCARWRNAYYSAMDSWGQGTTVTVSS VL: DIQVTQSPSSLSTSVGDRVTITCTASQDVGTAVAWYQQKPGKSPKLLIYWASTRHTGVPERFTGSGSGTDFTLTISSVQPEDVATYFCQQYRTSPLTFGVGTKVEIK | – | – | – | – | 2.3 | EC50 (human SLC34A2 [9]): 1.67 nM; Top (MFI) (human SLC34A2 [9]): 37400 MFI
